Blank lines part the entries; values can stand above or below the molecule they belong to.
What was measured:
[1] = molecular target: GAL4-RpBphP1; assay: cell-based or functional assay
[2] = molecular target: the molecule itself; assay: analytical SEC of LDB-14 alone at different injected amounts, Superdex 200 Increase 10/300 GL
[3] = molecular target: the molecule itself; assay: analytical SEC of DrBphP alone, Superdex 200 Increase 10/300 GL
[4] = molecular target: the molecule itself; assay: analytical SEC of LDB-3 alone at different injected amounts, Superdex 200 Increase 10/300 GL

light-induced luciferase expression over dark expression (mammalian two-hybrid, HEK293T, 775-nm light) [1]: 2.95 fold
Molecule: NLS-PpsR2-p65

B1: LDB-14-His (VHH, not shown: small tags and cut ends)
VHH: EVQLQASGGGFVQPGGSLRLSCAASGTTSRWESMGWFRQAPGKEREFVSAISWQNNSVPYYADSVKGRFTISRDNSKNTVYLQMNSLRAEDTATYYCAAQHNFLGHRYWGQGTQVTVSS
notes: Synthetic nanobody, expressed in E. coli WK6; used in SEC, ITC and photoconversion assays; SEC: mainly monomer
binding result [2]: binds

B2: DrBphP-His, light form (photosensory module of Deinococcus radiodurans bacteriophytochrome, biliverdin-bound, after 654-nm illumination) (other)
chain: MSRDPLPFFPPLYLGGPEITTENCEREPIHIPGSIQPHGALLTADGHSGEVLQMSLNAATFLGQEPTVLRGQTLAALLPEQWPALQAALPPGCPDALQYRATLDWPAAGHLSLTVHRVGELLILEFEPTEAWDSTGPHALRNAMFALESAPNLRALAEVATQTVRELTGFDRVMLYKFAPDATGEVIAEARREGLHAFLGHRFPASDIPAQARALYTRHLLRLTADTRAAAVPLDPVLNPQTNAPTPLGGAVLRATSPMHMQYLRNMGVGSSLSVSVVVGGQLWGLIACHHQTPYVLPPDLRTTLEYLGRLLSLQVQVKEAADVAAFRQSLREHHARVALAAAHSLSPHDTLSDPALDLLGLMRAGGLILRFEGRWQTLGEVPPAPAVDALLAWLETQPGALVQTDALGQLWPAGADLAPSAAGLLAISVGEGWSECLVWLRPELRLEVAWGGATPDQAKDDLGPRHSFDTYLEEKRGYAEPWHPGEIEEAQDLRDTLTGAL
modifications: biliverdin chromophore bound
notes: Same polypeptide as m2; differs only in the photoconverted state (654-nm light); Used in SEC, ITC, BLI and photoconversion assays; also called DrBphP light form
binding result [3]: binds

B3: DrBphP-His, dark form (photosensory module of Deinococcus radiodurans bacteriophytochrome, biliverdin-bound, after 775-nm illumination) (other)
chain: MSRDPLPFFPPLYLGGPEITTENCEREPIHIPGSIQPHGALLTADGHSGEVLQMSLNAATFLGQEPTVLRGQTLAALLPEQWPALQAALPPGCPDALQYRATLDWPAAGHLSLTVHRVGELLILEFEPTEAWDSTGPHALRNAMFALESAPNLRALAEVATQTVRELTGFDRVMLYKFAPDATGEVIAEARREGLHAFLGHRFPASDIPAQARALYTRHLLRLTADTRAAAVPLDPVLNPQTNAPTPLGGAVLRATSPMHMQYLRNMGVGSSLSVSVVVGGQLWGLIACHHQTPYVLPPDLRTTLEYLGRLLSLQVQVKEAADVAAFRQSLREHHARVALAAAHSLSPHDTLSDPALDLLGLMRAGGLILRFEGRWQTLGEVPPAPAVDALLAWLETQPGALVQTDALGQLWPAGADLAPSAAGLLAISVGEGWSECLVWLRPELRLEVAWGGATPDQAKDDLGPRHSFDTYLEEKRGYAEPWHPGEIEEAQDLRDTLTGAL
modifications: biliverdin chromophore bound
notes: Same polypeptide as m1; differs only in the photoconverted state (775-nm light); also called DrBphP dark form
binding result [3]: binds

B4: LDB-3-His (VHH, not shown: small tags and cut ends)
VHH: EVQLQASGGGFVQPGGSLRLSCAASGFTWDHYIMGWFRQAPGKEREFVSAISENGDAWNYYADSVKGRFTISRDNSKNTVYLQMNSLRAEDTATYYCAIGFDVPSGRSWQGSHFWMYWGQGTQVTVSS
notes: Synthetic nanobody, expressed in E. coli WK6; used in SEC, ITC and photoconversion assays; SEC: mixture of monomer and dimer
binding result [4]: binds

— patent publication US12679884 (University of Washington, dated 2026)
